Measured values as given in patent publication US20250215467A1, “L-THREONINE TRANSALDOLASES AND USES THEREOF” (University of Delaware, priority 2022, published 2025).

Assays:
[1] = TTA-ADH coupled assay, screen of purified TTAs on 2-nitro-benzaldehyde; assay type: biochemical; conditions: substrate 3, TTA-ADH coupled assay
Experimental: (§1) High-throughput screening of purified TTAs was performed with a TTA-ADH coupled assay using purified TTA and commercially available alcohol dehydrogenase from S. cerevisiae purchased from MilliporeSigma. Aldehyde stocks were prepared in 50-100 mM solutions in DMSO or acetonitrile. Reaction mixtures were prepared in a 96-well plate with 100 μL of 100 mM phosphate buffer pH 7.5, 0.5 mM NADH, 0.4 mM PLP, 15 mM MgCl2, and 100 mM L-Thr with the addition of 0.25 mM to 1 mM aldehyde depending on the background absorbance at 340 nm (Table 4), 10 U ScADH, and 0.25 μM purified TTA unless otherwise specified. Reactions were initiated with the addition of enzyme. […] The following controls were included for every assay: reaction mixture without aldehyde, without TTA, and without enzyme (TTA or ADH). Rates were calculated by identifying the linear region at the beginning of the kinetic run and converting the depletion in absorbance to the depletion of mM NADH using an NADH standard curve.
Once purified, we identified the putative TTAs with high activity and further characterized them for their L-Thr affinity and substrate scope. We first screened each purified enzyme using the TTA-ADH coupled assay with 2-nitro-benzaldehyde, 3, the best performing substrate from the screen of ObiH that was not a substrate of the ScADH. […] With this evidence as well as well-aligned, predicted AlphaFold structures, we assumed the impact of the SUMO tag would be minimal for all TTAs screened and moved forward with additional enzyme characterization.

[2] = TTA-ADH coupled assay, substrate scope of TTAs on aromatic aldehydes; assay type: biochemical
Experimental: as §1
We specifically selected substrates with ring substituents with different electron withdrawing properties (1, 3, 6, 7, 8), substituent size (12), and aldehyde chain length (15) to compare the activity of the putative TTAs to ObiH. We were also encouraged by the activity of PbTTA and KaTTA on vanillin and protocatechualdehyde which are substrates that would form products like commercially available therapeutic, Droxidopa (FIG. 18).
To explore the possibility that DbTTA and TmTTA are TTAs active on other related aldehydes, we sought to examine their activity with L-Thr and aldehyde substrates with different ring substituent position (2), bulkier, hydrophobic chemistry (10), and aldehyde chain length (14) using the TTA-ADH coupled assay.

[3] = In vitro assay over 20 h with HPLC analysis (amino acid substrate specificity, diastereomeric excess); assay type: biochemical; conditions: 3 as aldehyde substrate
Experimental: (§2) Metabolites of interest were quantified via high-performance liquid chromatography (HPLC) using an Agilent 1260 Infinity model equipped with a Zorbax Eclipse Plus-C18 column. To quantify aldehyde and β-OH-nsAAs, an initial mobile phase of solvent A/B=95/5 was used (solvent A, water+0.1% TFA; solvent B, acetonitrile+0.1% TFA) and maintained for 5 min. A gradient elution was performed (A/B) as follows: gradient from 95/5 to 50/50 for 5-12 min, gradient from 50/50 to 0/100 for 12-13 min, and gradient from 0/100 to 95/5 for 13-14 min. A flow rate of 1 mL min-1 was maintained, and absorption was monitored at 210, 250 and 280 nm.
We performed an in vitro assay over 20 h using 3 as the aldehyde substrate and either L-Thr, Glycine (Gly), or L-Serine (L-Ser) as the candidate amino acid. Since the TTA-ADH coupled assay is specific to L-Thr, we analyzed TTA activity via HPLC with a chemically synthesized β-OH-nsAA standard for the assumed product from 3.

E. coli RARE strain = experiment: β-OH-nsAA biosynthesis during aerobic fermentation in E. coli RARE strain; assay type: cell-based, Escherichia coli; conditions: 1 mM 3, 20 h
Experimental: as §2
For screening TTA activity in aerobically growing cells, we inoculated strains transformed with plasmids expressing TTAs into 300 μL volumes of MOPS EZ Rich media in a 96-deep-well plate with appropriate antibiotic added to maintain plasmids (50 μg/mL kanamycin (Kan)). Cultures were incubated at 37° C. with shaking at 1000 RPM and an orbital radius of 1.25 mm until an OD600 of 0.5-0.8 was reached. OD600 was measured using a SPECTRAMAX® i3× plate reader. At this point, the TTAs were induced with addition of 0.2 nM aTc for TTA expression. Then, 2 h following induction of the TTAs, 1 mM aldehyde was added to the culture. Cultures were then incubated over 20 h at 30° C. with metabolite concentration measured via supernatant sampling and submission to HPLC. […]

[4] = In vitro CAR-TTA coupled assay with HPLC analysis; assay type: biochemical; conditions: CAR plus 2 μM PbTTA, 100 mM L-Thr, 20 h
Experimental: In vitro CAR activity assays were performed as previously reported (Gopal et al. biorxiv, 2022) using 2 mM NADPH and 2 mM ATP, 20 mM MgCl2, and 0.75 μM CAR and E. coli pyrophosphatase. For in vitro coupling with the CAR and TTA, the same in vitro CAR assay was performed with the addition of 2 μM TTA, 0.4 mM PLP, and 100 mM L-Thr; however, rather than monitoring the reaction with the plate reader, the plate was left shaking at 1000 RPM with an orbital radius of 1.25 mm at 30° C. overnight. The reaction was then quenched after 20 h with 100 μL of 3:1 methanol:2 M HCl. The supernatant was then separated from the protein precipitate using centrifugation and analyzed via HPLC.
as §2, with “nm. […]” for “nm.”

B1: PbTTA: L-threonine transaldolase, SEQ ID NO: 16, Parachlamydiales bacterium, MBN2478762.1 (protein, listed as Parachlamydiales bacterium)
chain: METSLKDFETILHLINKEEIDSNDTIHMTANENIMSKLSKHYLKSTLSYRYHVGMFDDQKNLTVSRSCLIKNSLMLRCLSPIFLLEQQAREYVKKMFFAEYADFRPLSGMHTVFCILSTLTKPNDRVYVFTTESVGHAATVSLLKSLGRKVSFIPFCEKKLDIDLEKLSKQILIEKPNAILFDFGTPFYPLPIREIREIVGNDVKMIYDASHVLGLIAGGQFQNPLLEGCDVLIGNTHKTFPGPQKGMILYKNKSLGKEIATEIFKSAISAQHTHHAIALYVTIIEMYIHGKEYANQIIKNNHALSQALINEGFKIFKRKNQFSLSHMIAITGDFPIDHHVACADLHNSNISTNSRILYDFPAVRIGVQEVTRKGMKEKDMVQLAKFFKEIILDRKNISSKIKEFNNKFNSIEYSLDEIYEKLF
activity on 2-nitro-benzaldehyde relative to ObiH [1]: comparable to or better than ObiH
activity on vanillin and protocatechualdehyde ([2]; TTA-ADH coupled assay): activity
activity on a set of aromatic aldehyde substrates (substrate scope) ([2]; substrates 1, 3, 6, 7, 8, 12, 15): high activity on a diverse array of substrates
β-OH-nsAA formation using L-Ser or Gly [3]: no β-OH-nsAA formation
β-OH-nsAA titer (E. coli RARE strain; 100 mM L-Thr): 0.61 ± 0.04 mM
β-OH-nsAA titer (E. coli RARE strain; natural L-Thr levels): 0.13 ± 0.01 mM
β-OH-nsAA production from 4-azido-benzoic acid, in vitro CAR-TTA coupling [4]: successfully produced a β-OH-nsAA product
